Experimental findings from patent US20110165265A1, “TRAIL VARIANTS FOR TREATING CANCER” (FUNDACIÓ GENÒMICA (CRG), priority 2007, published 2011) are described below.

The subject of one series is p53. The experiment in a line: p53 protein expression in cervical cancer cell lines. Type of series: cell-based. As for the experimental part: All three cervical cancer cell lines were treated with increasing concentration of Bortezomib to assess expression of p53 protein.
In a further series the test system is TRAIL R1, R2, R3 and R4. The experiment in a line: TRAIL receptor membrane expression by flow cytometry. Type of series: cell-based. Background: A flow cytometer gives signals particle by particle.
The test system of another series is Colo205 tumors. Kind of series: Colo205 tumors in athymic nude mice. The conditions noted are these: 40 and 200 mg/kg, 2×5 days. Type of series: in vivo.
A short description of series [1]: 125I-TRAIL biodistribution in tumor-bearing mice. The class given is in vivo. As for the experimental part: Radioiodination of TRAIL was performed with a TRAIL solution of 1 mg/ml in a pH 7.4 TRIS buffer, containing 100 μM zinc sulphate and 10% glycerol. 45 μg TRAIL and 50 μg chloramine T (Merck, Amsterdam, The Netherlands) were allowed to react with 70 MBq ^125I-NaI in 0.05 M NaOH (pH 9.0, GE Healthcare, Eindhoven, The Netherlands) during 3 min at pH 8.0. The labeling reaction was terminated with sodium metabisulfite (Acros Organics, Geel, Belgium). Non-bound ^1251 was removed by gel filtration chromatography. The PD-10 column (Sephadex™ G-25M, Amersham Biosciences AB, Uppsala, Sweden) was eluted with TRIS buffer, containing 100 μM zinc sulphate, 10% glycerol and 0.5% human serum albumin. Nude mice with IP A2780-Luc xenografts were prepared, as described above.
The in vivo biodistribution study was conducted in 50 mice after establishment of A2780-Luc IP xenografts. ^125I-TRAIL (0.15 ml; 150 kBq, 0.5 μg) was administered IV through retro-orbital injection in 25 mice, and IP in 25 mice. At five time points after injection (t=15, 30, 60, 90 and 360 min) groups of 5 mice were sacrificed and organs and tissues were excised, rinsed for residual blood and weighed. Tumor tissue was additionally fixed in 10% buffered formalin for histological assessment. Samples were counted for radioactivity in a calibrated well-type LKB-1282-CompuGamma counter. Tissue activity was expressed as percentage of the injected dose/g tissue (% ID/g). Tumor-to- blood and tumor-to-muscle ratios were also calculated. All data were corrected for physical decay and compared with a known standard sample. Pharmacokinetic parameters were derived using the KINFIT module of the MW/PHARM computer program package (version 3.50, MediWare, Groningen, The Netherlands). Clearance rates of ^125I-TRAIL from the circulation were calculated using non-linear regression analysis.

The next series relates to A2780 cells. Kind of series: Microculture tetrazolium cytotoxicity assay in A2780. The settings on record: A2780, 4 h pre-incubation; read-out: inhibitory concentration 20% (IC20). The class given is cell-based, human. How it is done:
The microculture tetrazolium assay, performed as described earlier^36, was used to measure cytotoxicity. […] In cell viability assays assessing combination treatment with cisplatin, the cells were pre-incubated for 4 h (h) with 2.5 μM cisplatin (inhibitory concentration 20%-IC20), before addition of 0-25 ng/ml TRAIL or TRAIL-DR5.

Another series has as its system A2780-Luc xenografts. Kind of series: IP A2780-Luc xenografts, bioluminescence imaging.
Setting [2] is: Colo205, 5 mM Aspirin or 10 μM 5-Flurouracil, 24 h.
Where [3] appears, read: Lovo, 2.5 mM Aspirin or 10 μM 5-Flurouracil, 24 h.
Setting [4] is: SW948, 2.5 mM Aspirin or 10 μM 5-Flurouracil, 24 h.

Experimental for A2780-Luc xenografts: Visualization of response to TRAIL, TRAIL-DR5, cisplatin and to the combination of either ligand with cisplatin by means of bioluminescence imaging. Nude mice were inoculated IP with 2×10^6 A2780-Luc cells. After 5 days treatment was initiated; cisplatin (4 mg/kg IP) or vehicle at day 5 and 12, TRAIL, TRAIL-DR5 (5 mg/kg IP) or vehicle at day 5-10 and 12-16, or a combination of TRAIL or TRAIL-DR5 with cisplatin.
Female nude mice (Hsd:Athymic Nude-nu) were obtained from Harlan Nederland (Horst, The Netherlands) at 6-8 weeks of age (˜21 g). Inoculation was performed after 10 days of acclimatization.
Imaging was conducted with the IVIS 100 series (Xenogen Corporation Alameda, Calif.), composed of a cooled charge-coupled device camera connected to a light tight black chamber. Before in vivo imaging animals were anesthetized with 4% isoflurane and injected IP with D-luciferin (150 mg/kg, Xenogen) reconstituted in sterile PBS. Mice were placed in prone position on a warmed stage (37° C.) in the imaging chamber, and grayscale reference images were obtained under dim illumination. Pseudocolor images representing bioluminescent intensity were acquired with Livinglmage software (version 2.50, Xenogen) 10 and 15 min after D-luciferin injection in complete darkness. These images were superimposed on the grayscale images for analysis with Igor Pro software (version 4.09, WaveMetrics, Lake Oswego, Oreg.). All bioluminescence imaging (BLI) data are depicted in radiance units (photons/sec/cm^2/sr) enabling absolute comparisons between bioluminescent images and represent final data obtained after subtraction of the background signal.
Experimental for TRAIL R1, R2, R3 and R4: Analysis of TRAIL-receptor membrane expression was performed by FACS analysis as described previously^35. For death receptor expression after cisplatin exposure, cells were exposed for 4 h, washed with PBS and incubated for 20 h in regular culture medium, after which FACS analysis was performed. Cells were subsequently washed twice with cold PBS containing 2% FCS and 0.1% sodium azide and incubated with phycoerythrin (PE)-conjugated mouse monoclonal antibodies against DR4, DR5, DcR1 and DcR2. Mouse PE-labeled IgG1 and IgG2B were used as isotype controls. All PE-labeled antibodies were purchased from R&D systems (Oxon, UK). Membrane receptor expression was analyzed with Winlist and Winlist 32 software (Verity Software House, Inc., Topsham, Me.) and is shown as mean fluorescent intensity (MFI) of all analyzed cells.
In order to determine the cell surface expression of each of the TRAIL receptors on A2780 carcinoma cells, cells were washed twice in PBS containing 1% BSA and then incubated with monoclonal antibodies to DR4, DR5, DcR1 or DcR2 (Alexis) for 40 min. After two wash steps with PBS/BSA, anti-mouse IgG-FITC (Sigma) secondary antibody was added for 30 min. All incubations were carried out on ice. Negative controls contained isotype control antibody. Cells were analyzed by a FacsCalibur flow cytometer.

For `CC(C)C[C@H](NC(=O)[C@H](Cc1ccccc1)NC(=O)c1cnccn1)B(O)O` [Bortezomib], the “induction of p53 protein” value in the series on p53 (Caski) was “can be seen at concentrations of 1 nM with largest induction seen at 5 and 10 nM”; with p53 (HELA) it was “seen also at 5 and 10 nM, though relatively smaller”; in the series with p53 (SiHa), “can be seen at 5 and 10 nM”. Moreover, the TRAIL receptor expression result in the series with TRAIL R1, R2, R3 and R4 (Caski, 5 nM, 24 h) is “increased receptor expression of TRAIL R2 and slight increase of TRAIL R3”; with TRAIL R1, R2, R3 and R4 (Hela, 10 nM, 24 h) it was “increases receptor expression of all TRAIL receptors”; with TRAIL R1, R2, R3 and R4 (SIHA, 10 nM, 24 h), “increases receptor expression of all TRAIL receptors”.
Regarding `O=c1[nH]cc(F)c(=O)[nH]1` [5-Flurouracil], the TRAIL receptor expression entry in the series with TRAIL R1, R2, R3 and R4 (setting [2]) was “induction of all TRAIL receptors”; with TRAIL R1, R2, R3 and R4 (setting [3]), “induction of TRAIL R2, R3 and R4 receptors”; in the series on TRAIL R1, R2, R3 and R4 (setting [4]), “did not lead to any induction of the TRAIL receptors”.
Take `CC(=O)Oc1ccccc1C(=O)O` [aspirin]: the “effect on tumor growth, aspirin alone” value in the series on Colo205 tumors is given as “no difference in effect”. For the same compound, the side effects entry in the series on Colo205 tumors was “no side effects were found”. Also, the TRAIL receptor expression result in the series on TRAIL R1, R2, R3 and R4 (setting [2]) is “induction TRAIL R2, R3 and R4 receptor expression”; in the series with TRAIL R1, R2, R3 and R4 (setting [3]) it was “induction TRAIL R4 and to a lesser extent TRAIL R2 receptor expression”; in the series on TRAIL R1, R2, R3 and R4 (setting [4]) it was “induction TRAIL-R2 expression only”.
Turning to 125I-TRAIL: radioiodinated TRAIL, the “cleaved caspase-3 staining in tumor tissue” value is given as “almost no cleaved caspase-3 was detected” in series [1] (15 min after injection) and “increased cleaved caspase-3 staining” in series [1] (360 min after injection). In addition, the blood activity in series [1] (IP, 15 min) is 25.30±5.04 % ID/g; in series [1] (IP, 30 min), 15.33±3.78 % ID/g; in series [1] (IP, 90 min), 23.74±6.85 % ID/g; in series [1] (IP, 360 min) it was 8.26±1.74 % ID/g; in series [1] (IV, 15 min), 43.29±11.04 % ID/g; in series [1] (IV, 30 min), 30.51±12.40 % ID/g. Moreover, the blood activity came out at 7.52±1.22 % ID/g in series [1] (IV, 90 min) and 2.63±0.56 % ID/g in series [1] (IV, 360 min). The kidney uptake in series [1] (IP, 15 min) was 19.83±1.38 % ID/g; in series [1] (IP, 30 min), 21.45±1.90 % ID/g; in series [1] (IP, 90 min), 17.87±1.28 % ID/g; in series [1] (IP, 360 min), 4.45±0.31 % ID/g; in series [1] (IV, 15 min), 199.2±40.69 % ID/g; in series [1] (IV, 30 min), 126.6±49.68 % ID/g. Also, the kidney uptake is given as 12.73±2.47 % ID/g in series [1] (IV, 90 min) and 2.06±0.56 % ID/g in series [1] (IV, 360 min). Besides, the tumor activity in series [1] (IP, 15 min) was determined as 11.31±1.51; in series [1] (IP, 60 min), 12.91±3.29; in series [1] (IV, 60 min (maximum)) it was 6.85±1.29. The “tumor to blood ratio” value in series [1] (IP, 15 min) is listed as 0.48±0.03; in series [1] (IP, 60 min) it was 0.55±0.06; in series [1] (IV, 15 min), 0.13±0.02; in series [1] (IV, 60 min), 0.38±0.04.
`N.N.[Cl][Pt][Cl]` [cisplatin, cis-diamminedichloroplatinum (II), reference compound]: in the series with A2780 cells, the IC20 turned out to be 2500 nM. In addition, in the series on A2780-Luc xenografts (day 16, IP treatment), the “mean signal reduction as to vehicle treated mice” value was 72.3%. The “light emission (bioluminescent signal)” value in the series on A2780-Luc xenografts (day 16, mean±SEM) is 1.3×10^8±2.4×10^7 radiance units. Further, in the series with A2780-Luc xenografts (surrogate endpoint signal ≧3.1×10^8), the median survival was determined as 28 days. Further, the TRAIL receptor expression result in the series with TRAIL R1, R2, R3 and R4 (A2780) is “dose dependent upregulation of DR5 and DcR2 expression”.
